B1: Myc-APRIL (ligand, UniProt O75888 116-250, looked up)
chain: SVLHLVPINATSKDDSDVTEVMWQPALRRGRGLQAQGYGVRIQDAGVYLLYSQVLFQDVTFTMGQVVSREGQGRQETLFRCIRSMPSHPDRAYNSCYSAGVFHLHQGDILSVIIPRARAKLNLSPHGTFLGFVKL
B2: APRIL-Myc (ligand, UniProt O75888 116-250, looked up)
chain: B1 chain

Biological target: the molecule itself
Test: SEC

Protein | stoichiometry N
B1 | 3
B2 | 3

Reference: paper PMC11555413 (Nature Communications, 2024)
